US11278600B2, “Human alpha-galactosidase variants” (Codexis, Inc., priority 2014, dated 2022)

B1: 615 (protein)
chain: LDNGLARTPTMGWLHWERFMCNLDCQEEPDSCISEKLFMEMAERMVNEGWKDAGYEYLCIDDCWMAPQRDSEGRLQADPQRFPHGIRQLANHVHSKGLKLGIYADVGNKTCAGFPGSFGYYDIDAQTFADWGVDLLKFDGCYCDSLENLADGYKHMSLALNRTGRPIVYSCEWPLYMWPFQKPNYTEIRQYCNHWRNFADIDDSWASIKSILDWTSRNQERIVDVAGPGGWNDPDMLVIGNFGLSWDQQVTQMALWAIMAAPLFMSNDLRHISPQAKALLQDKDVIAINQDPLGKQGYQLRKGDNFEVWERPLSGDAWAVAIINRQEIGGPRSYTIPVASLGKGVACNPACFITQLLPVKRQLGFYNWTSRLKSHINPTGTVLLQLENTHQMSLKDLL
modifications: Synthetic Polypeptide sequence of Variant No. 615 of mature Human GLA
B2: 618 (protein)
chain: LDNGLARTPTMGWLHWERFMCNLDCQEEPDSCISEKLFMEMAERMVTEGWKDAGYEYLCIDDCWMAPQRDSEGRLQADPQRFPHGIRQLANHVHSKGLKLGIYADVGNKTCAGFPGSFGYYDIDAQTFADWGVDLLKFDGCYCDSLENLADGYKHMSLALNRTGRPIVYSCEWPLYMWPFQKPNYTEIRQYCNHWRNFADIDDSWASIKSILDWTSRNQERIVDVAGPGGWNDPDMLVIGNFGLSWDQQVTQMALWAIMAAPLFMSNDLRAISPQAKALLQDKDVIAINQDPLGKQGYQLRKGDNFEVWERPLSGDAWAVAIINRQEIGGPRSYTIPVASLGKGVACNPACFITQLLPVKRQLGFYNWTSRLKSHINPTGTVLLQLENTMQMSLKDLL
modifications: Synthetic Polypeptide sequence of Variant No. 618 of mature Human GLA
B3: 619 (protein)
chain: LDNGLARTPTMGWLHWERFMCNLDCQEEPDSCISEKLFMEMAERMVTEGWKDAGYEYLCIDDCWMAPQRDSEGRLQADPQRFPHGIRQLANHVHSKGLKLGIYADVGNKTCAGFPGSFGYYDIDAQTFADWGVDLLKFDGCYCDSLENLADGYKHMSLALNRTGRPIVYSCEWPLYMWPFQKPNYTEIRQYCNHWRNFADIDDSWASIKSILDWTSRNQERIVDVAGPGGWNDPDMLVIGNFGLSWDQQVTQMALWAIMAAPLFMSNDLRAISPQAKALLQDKDVIAINQDPLGKQGYQLRKGDNFEVWERPLSGDAWAVAIINRQEIGGPRSYTIPVASLGKGVACNPACFITQLLPVKRQLGFYNWTSRLKSHINPTGTVLLQLENTHQMSLKDLL
modifications: Synthetic Polypeptide sequence of Variant No. 619 of mature Human GLA
B4: 616 (protein)
chain: LDNGLARTPTMGWLHWERFMCNLDCQEEPDSCISEKLFMEMAERMVTEGWKDAGYEYLCIDDCWMAPQRDSEGRLQADPQRFPHGIRQLANHVHSKGLKLGIYADVGNKTCAGFPGSFGYYDIDAQTFADWGVDLLKFDGCYCDSLENLADGYKHMSLALNRTGRPIVYSCEWPLYMWPFQKPNYTEIRQYCNHWRNFADIDDSWASIKSILDWTSRNQERIVDVAGPGGWNDPDMLVIGNFGLSWDQQVTQMALWAIWAAPLFMSNDLRAISPQAKALLQDKDVIAINQDPLGKQGYQLRKGDNFEVWERPLSGDAWAVAIINRQEIGGPRSYTIPVASLGKGVACNPACFITQLLPVKRQLGFYNWTSRLKSHINPTGTVLLQLENTQQMSLKDLL
modifications: Synthetic Polypeptide sequence of Variant No. 616 of mature Human GLA
B5: 622 (protein)
chain: LDNGLARTPTMGWLHWERFMCNLDCQEEPDSCISEKLFMEMAERMVNEGWKDAGYEYLCIDDCWMAPQRDSEGRLQADPQRFPHGIRQLANHVHSKGLKLGIYADVGNKTCAGFPGSFGYYDIDAQTFADWGVDLLKFDGCYCDSLENLADGYKHMSLALNRTGRPIVYSCEWPLYMWPFQKPNYTEIRQYCNHWRNFADIDDSWASIKSILDWTSRNQERIVDVAGPGGWNDPDMLVIGNFGLSWDQQVTQMALWAIWAAPLFMSNDLRAISPQAKALLQDKDVIAINQDPLGKQGYQLRKGDNFEVWERPLSGDAWAVAIINRQEIGGPRSYTIPVASLGKGVACNPACFITQLLPVKRQLGFYNWTSRLKSHINPTGTVLLQLENTQQTSLKDLL
modifications: Synthetic Polypeptide sequence of Variant No. 622 of mature Human GLA
B6: 617 (protein)
chain: LDNGLARTPTMGWLHWERFMCNLDCQEEPDSCISEKLFMEMAERMVSEGWKDAGYEYLCIDDCWMAPQRDSEGRLQADPQRFPHGIRQLANHVHSKGLKLGIYADVGNKTCAGFPGSFGYYDIDAQTFADWGVDLVKFDGCYCDSLENLADGYKHMSLALNRTGRPIVYSCEWPLYMWPFQKPNYTEIRQYCNHWRNFADIDDSWASIKSILDWTSRNQERIVDVAGPGGWNDPDMLVIGNFGLSWDQQVTQMALWAIAAAPLFMSNDLRHISPQAKALLQDKDVIAINQDPLGKQGYQLRKGDNFEVWERPLSGDAWAVAIINRQEIGGPRSYTIPVASLGKGVACNPACFITQLLPVKRQLGFYNWTSRLKSHINPTGTVLLQLENTQQMSLKDLL
modifications: Synthetic Polypeptide sequence of Variant No. 617 of mature Human GLA
B7: 620 (protein)
chain: LDNGLARTPTMGWLHWERFMCNLDCQEEPDSCISEKLFMEMAERMVTEGWKDAGYEYLCIDDCWMAPQRDSEGRLQADPQRFPHGIRQLANHVHSKGLKLGIYADVGNKTCAGFPGSFGYYDIDAQTFADWGVDLLKFDGCYCDSLENLADGYKHMSLALNRTGRPIVYSCEWPLYMWPFQKPNYTEIRQYCNHWRNFADIDDSWASIKSILDWTSRNQERIVDVAGPGGWNDPDMLVIGNFGLSWDQQVTQMALWAIMAAPLFMSNDLRAISPQAKALLQDKDVIAINQDPLGKQGYQLRKGDNFEVWERPLSGDAWAVAIINRQEIGGPRSYTIPVASLGKGVACNPACFITQLLPVKRQLGFYNWTSRLKSHINPTGTVLLQLENTQQMSLKDLL
modifications: Synthetic Polypeptide sequence of Variant No. 620 of mature Human GLA
B8: 621 (protein)
chain: LDNGLARTPTMGWLHWERFMCNLDCQEEPDSCISEKLFMEMAERMVTEGWKDAGYEYLCIDDCWMAPQRDSEGRLQADPQRFPHGIRQLANHVHSKGLKLGIYADVGNKTCAGFPGSFGYYDIDAQTFADWGVDLLKFDGCYCDSLENLADGYKHMSLALNRTGRPIVYSCEWPLYMWPFQKPNYTEIRQYCNHWRNFADIDDSWASIKSILDWTSRNQERIVDVAGPGGWNDPDMLVIGNFGLSWDQQVTQMALWAIEAAPLFMSNDLRAISPQAKALLQDKDVIAINQDPLGKQGYQLRKGDNFEVWERPLSGDAWAVAIINRQEIGGPRSYTIPVASLGKGVACNPACFITQLLPVKRQLGFYNWTSRLKSHINPTGTVLLQLENTQQMSLKDLL
modifications: Synthetic Polypeptide sequence of Variant No. 621 of mature Human GLA

Legend:
Type in all cases: biochemical
[1] = HTP-analysis of yeast culture supernatants, no challenge (MUGal hydrolysis); details: activity of the variant/activity of Rd3BB (SEQ ID NO: 13), yeast supernatant
How it was run: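 GLA variants expressed in yeast INVSc1, secreted into SD-Ura broth over 66-84 h at 30° C; clarified supernatants tested without challenge. Supernatant mixed with McIlvaine buffer pH 4.8 and 2 mM MUGal (citrate/KCl, pH 4.6), 37° C for 30-180 min, carbonate-quenched, fluorescence Ex 355/Em 448 nm.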

[2] = HTP-analysis of supernatants pretreated with acid (MUGal hydrolysis); details: challenge at pH 3.3; activity of the variant/activity of Rd3BB (SEQ ID NO: 13); yeast supernatant
How it was run: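 Fluorescence of MUGal hydrolysis (Ex. 355 nm, Em. 448 nm) is read after sodium carbonate quench. The enzyme source is INVSc1 yeast culture supernatant, first exposed to pH 3.3-4.3 McIlvaine buffer at 37° C. for 1-3 h, then reacted at pH 4.8 for 30-180 minutes.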

[3] = HTP-analysis of supernatants pretreated with base (MUGal hydrolysis); details: challenge at pH 9.7; activity of the variant/activity of Rd3BB (SEQ ID NO: 13); yeast supernatant
How it was run: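 Fluorescence of released 4-MU (Ex 355 nm, Em 448 nm) after carbonate quench reports MUGal hydrolysis by GLA variants secreted from INVSc1 yeast. Before the acidic (pH 4.3-4.8) 30-180 min reaction at 37° C, supernatants had been pre-incubated at pH 7.0-9.7 for 1-18 h at 37° C.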

Row | Molecule | Relative Activity of GLA Variants After No Challenge (NC) [1] | Relative Activity of GLA Variants After Challenge at pH 3.3 [2] | Relative Activity of GLA Variants After Challenge at pH 9.7 [3]
1 | B1 | + (+ = 1.5 to 5 relative activity over Rd3BB (SEQ ID NO: 13)) | ++ (++ = >5 to 10 relative activity over Rd3BB (SEQ ID NO: 13)) | ++ (++ = >5 to 10 relative activity over Rd3BB (SEQ ID NO: 13))
2 | B2 | + (+ = 1.5 to 5 relative activity over Rd3BB (SEQ ID NO: 13)) | ++ (++ = >5 to 10 relative activity over Rd3BB (SEQ ID NO: 13)) | ++ (++ = >5 to 10 relative activity over Rd3BB (SEQ ID NO: 13))
3 | B3 | + (+ = 1.5 to 5 relative activity over Rd3BB (SEQ ID NO: 13)) | ++ (++ = >5 to 10 relative activity over Rd3BB (SEQ ID NO: 13)) | ++ (++ = >5 to 10 relative activity over Rd3BB (SEQ ID NO: 13))
4 | B4 | + (+ = 1.5 to 5 relative activity over Rd3BB (SEQ ID NO: 13)) | + (+ = 1.5 to 5 relative activity over Rd3BB (SEQ ID NO: 13)) | ++ (++ = >5 to 10 relative activity over Rd3BB (SEQ ID NO: 13))
5 | B5 | + (+ = 1.5 to 5 relative activity over Rd3BB (SEQ ID NO: 13)) | − (− = <1.5 relative activity to Rd3BB (SEQ ID NO: 13)) | ++ (++ = >5 to 10 relative activity over Rd3BB (SEQ ID NO: 13))
6 | B6 | + (+ = 1.5 to 5 relative activity over Rd3BB (SEQ ID NO: 13)) | ++ (++ = >5 to 10 relative activity over Rd3BB (SEQ ID NO: 13)) | ++ (++ = >5 to 10 relative activity over Rd3BB (SEQ ID NO: 13))
7 | B7 | − (− = <1.5 relative activity to Rd3BB (SEQ ID NO: 13)) | + (+ = 1.5 to 5 relative activity over Rd3BB (SEQ ID NO: 13)) | ++ (++ = >5 to 10 relative activity over Rd3BB (SEQ ID NO: 13))
8 | B8 | + (+ = 1.5 to 5 relative activity over Rd3BB (SEQ ID NO: 13)) | ++ (++ = >5 to 10 relative activity over Rd3BB (SEQ ID NO: 13)) | − (− = <1.5 relative activity to Rd3BB (SEQ ID NO: 13))
